In paper PMC8964413 (Nature chemical biology, 2022):
Substitutions are numbered along the chain they refer to. Names may count otherwise. Values belong to the binder of their own block, whether it stands above or below them.

How the values were obtained:
[1] = target: unanchored wild-type K63-linked di-Ub (UniProt P0CG48); experiment: cell-based or functional assay
[2] = target: donor ubiquitin (Ub^D), from His-TEV-Ub^WT (UniProt P0CG48 1-76, in the crystal: G76 isopeptide-linked to K92 of UBE2K); experiment: crystal structure

- k cat/K m of tri-Ub formation, K63-Ub2 as acceptor [1]: 418 M⁻¹ s⁻¹
B1: UBE2K^WT (enzyme)
chain: MANIAVQRIKREFKEVLKSEETSKNQIKVDLVDENFTELRGEIAGPPDTPYEGGRYQLEIKIPETYPFNPPKVRFITKIWHPNISSVTGAICLDILKDQWAAAMTLRTVLLSLQALLAAAEPDDPQDAVVANQYKQNPEMFKQTARLWAHVYAGAPVSSPEYTKKIENLCAMGFDRNAVIVALSSKSWDVETATELLLSN

- binding result [2]: binds
B2: UBE2K^C92K,K97R,D124C,C170S (enzyme)
chain: B1 chain with C92K, K97R, D124C, C170S
